Two molecules from US20220275095A1 (SURROZEN OPERATING, published 2022) can be followed below.

For orientation: KD means the free concentration of one partner at which half of the binding sites on the other are occupied at equilibrium, for simple one-to-one binding.

The target in one test is T1, human Fzd10 hinge region (human).
T1 construct: also called hFzd10L
T1 peptide: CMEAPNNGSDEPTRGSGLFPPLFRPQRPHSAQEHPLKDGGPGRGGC
In words: SPR. How it is done:
(§1) Certain VL and VH clones from Table 1 were PCR amplified from the phage clone and sub-cloned into pcDNA3.1 based mammalian expression vectors (Invitrogen/ThermoFisher) of human kappa or lambda light chain and human IgG1 heavy chain, respectively. Candidate IgGs were purified using Protein A affinity resin. The candidate library was captured on an anti-FC lawn. The capture lawn was prepared by direct amine coupling goat anti-human IgG Fc (Southern Biotech #2048-01) at 8000 RU on a HC200M Carterra sensor chip (Carterra 4297). Capture levels were at least 600 RU for each candidate IgG. Binding to all target peptides was measured at 25° by injecting a concentration series of each peptide in 1×PBST+0.5 mg/mL BSA (TEKnova P1192, VWR V0332). All peptides were injected at 4.12 nM, 12.3 nM, 37 nM, 111 nM, 333 nM, and 1000 nM. Two blank injections were run between each peptide concentration series. Each injection started with a one minute baseline determination, followed by a five minute association phase where peptides were injected, and finished with a 10 minute dissociation phase. Binding data was analyzed using NextGenKIT (Carterra). Blank injections and reference locations were subtracted from all runs prior to fitting a 1:1 binding model to the data. […] Interactions with an Rₘₐₓ less than 15 RU or weaker than 5 μM were considered non-binders.
In general terms: SPR reads the build-up and loss of mass on a sensor chip optically.

A further test concerns the target T2, mouse Fzd2 hinge region (mouse, UniProt Q9JIP6 155-206, limits assumed).
T2 construct: domain: hinge region; also called mFzd2L
Nature of the test: SPR. How it is done: as §1

In the next test the target is T3, mouse Fzd3 hinge region (mouse, UniProt Q61086 133-165, limits assumed).
T3 construct: domain: hinge region; also called mFzd3L
T3 peptide (looked up): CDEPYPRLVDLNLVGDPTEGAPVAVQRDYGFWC
In words: SPR. How it is done: as §1

In another test the target is T4, mouse Fzd4 hinge region (mouse, UniProt Q61088 158-181, limits assumed).
T4 construct: domain: hinge region; also called mFzd4L
T4 peptide (looked up): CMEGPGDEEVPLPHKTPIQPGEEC
Nature of the test: SPR. How it is done: as §1

The next test has as its target T5, mouse Fzd5 hinge region (mouse, UniProt Q9EQD0 147-182, limits assumed).
T5 construct: domain: hinge region; also called mFzd5L
T5 peptide (looked up): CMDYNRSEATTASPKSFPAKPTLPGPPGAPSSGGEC
Nature of the test: SPR. The method, then: as §1

A further test has as its target T6, mouse Fzd6 hinge region (mouse, UniProt Q61089 129-161, limits assumed).
T6 construct: domain: hinge region; also called mFzd6L
T6 peptide (looked up): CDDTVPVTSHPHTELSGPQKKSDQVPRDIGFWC
In words: SPR. How it is done: as §1

The target in the next test is T7, mouse Fzd7 hinge region (mouse, UniProt Q61090 160-208, limits assumed).
T7 construct: domain: hinge region; also called mFzd7L
T7 peptide (looked up): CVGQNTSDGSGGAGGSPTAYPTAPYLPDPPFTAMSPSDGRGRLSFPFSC
Nature of the test: SPR. How it is done: as §1

Another test has as its target T8, mouse Fzd8 hinge region (mouse, UniProt Q61091 148-225, limits assumed).
T8 construct: domain: hinge region; also called mFzd8L; mFzd8
T8 sequence (peptide, looked up): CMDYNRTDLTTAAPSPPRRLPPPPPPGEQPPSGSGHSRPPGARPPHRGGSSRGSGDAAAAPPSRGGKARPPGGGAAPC
Nature of the test: SPR. How it is done: as §1

A further test addresses T9, mouse Fzd9 hinge region (mouse, UniProt Q9R216 153-197, limits assumed).
T9 construct: domain: hinge region; also called mFzd9
T9 peptide (looked up): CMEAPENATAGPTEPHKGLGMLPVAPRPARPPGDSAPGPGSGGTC
In words: SPR. The method, then:
as §1

Test [1] deals with T10, human Fzd2 hinge region (human).
T10 construct: also called hFzd2L
T10 peptide: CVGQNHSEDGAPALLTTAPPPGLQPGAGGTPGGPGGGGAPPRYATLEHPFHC
Nature of the test: SPR. The method, then:
as §1

The target of the next test is T11, mouse Fzd10 hinge region (mouse, UniProt Q8BKG4 148-193, limits assumed).
T11 construct: domain: hinge region; also called mFzd10L
T11 peptide (looked up): T1 peptide with T13S, L18M, G44A
In words: SPR. How it is done:
as §1

The next test deals with T12, human Fzd3 hinge region (human).
T12 construct: also called hFzd3L
T12 peptide: T3 peptide (looked up) with V14A, D16E
In words: SPR. The method, then: as §1

The next test concerns the target T13, human Fzd4 hinge region (human).
T13 construct: also called hFzd4L
T13 peptide: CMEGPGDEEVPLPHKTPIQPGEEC
Nature of the test: SPR. How it is done:
as §1

For another test, the target named is T14, human Fzd5 hinge region (human).
T14 construct: also called hFzd5L
T14 peptide: T5 peptide (looked up) with S13P, K15R, S16P, S31A
Nature of the test: SPR. The method, then: as §1

A further test addresses T15, human Fzd6 hinge region (human).
T15 construct: also called hFzd6L
T15 peptide: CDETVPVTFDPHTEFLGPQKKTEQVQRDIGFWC
Nature of the test: SPR. How it is done:
as §1

The next test concerns the target T16, human Fzd9 hinge region (human).
T16 construct: also called hFzd9L; hFzd9
T16 peptide: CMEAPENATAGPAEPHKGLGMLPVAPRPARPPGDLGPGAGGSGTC
In words: SPR. How it is done: as §1

In a further test the target is T17, human Fzd1 hinge region (human).
T17 construct: also called hFzd1L
T17 peptide: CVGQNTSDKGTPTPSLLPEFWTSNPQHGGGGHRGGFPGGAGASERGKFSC
Nature of the test: SPR; **** = 10 nM > KD. How it is done: as §1

The target in the next test is T18, mouse Fzd1 hinge region (mouse, UniProt O70421 222-271, limits assumed).
T18 construct: domain: hinge region; also called mFzd1L
T18 peptide (looked up): T17 peptide with H32Y, F36Y, A42T, S43V
In words: SPR; **** = 10 nM > KD. How it is done: as §1

Test [2] has as its target T19, human Fzd2 hinge region (human, UniProt Q14332 150-201).
T19 construct: also called hFzd2L; 2L
In words: phage ELISA.

Numbering of substitutions follows the chain as printed.

B1: 033S-B03 (antibody, V domains shown)
VH: QVQLVQSGAEVKKPGSSVKVSCKASGYTFTGQYMHWVRQAPGQGLEWMGGIIPIFGTAHYPQKFQGRVTITADESTSTAYMELSSLRSEDTAVYYCARRSVAAGTPFTDYWGQGTLVTVSS
VL: not shown
notes: human IgG1, human kappa or lambda light chain; also called 33SB3
Regarding B1, the binding result with human Fzd10 hinge region, with mouse Fzd2 hinge region, with mouse Fzd3 hinge region, with mouse Fzd4 hinge region, with mouse Fzd5 hinge region and in the test with mouse Fzd6 hinge region was “no binding (tested: 5 uM)” throughout. Also, the binding result with mouse Fzd7 hinge region, in the test with mouse Fzd8 hinge region, with mouse Fzd9 hinge region, with human Fzd2 hinge region [1], with mouse Fzd10 hinge region and with human Fzd3 hinge region was “no binding (tested: 5 uM)” each time. The binding result in the test with human Fzd4 hinge region, with human Fzd5 hinge region, in the test with human Fzd6 hinge region and with human Fzd9 hinge region was “no binding (tested: 5 uM)” in each case. Further, the KD with human Fzd1 hinge region and with mouse Fzd1 hinge region was less than 0.01 µM each time.

B2: 031S-B02 (antibody, V domains shown)
VH: EVQLLESGGGLVQPGGSLRLSCAASGFTFSSYWMSWVRQAPGKGLEWVSAIGGSGANAYYADSVKGRFTISRDNSKNTLYLQMNSLRAEDTAVYYCVRDTNWAFDLWGQGTMVTVSS
VL: EIVMTQSPATLSVSPGERATLSCRASQSVSGSYLAWYQQKPGQAPRLLIYGASTRATGIPARFSGSGSGTEFTLTISSLQSEDFAVYYCQQYGSSPLTFGQGTKVEIK
notes: also called 31SB2
Consider B2, for which the binding result with human Fzd2 hinge region [2] was “binds”.
